Test results published in PMC7411133, “Phosphorylations of the Abutilon Mosaic Virus Movement Protein Affect Its Self-Interaction, Symptom Development, Viral DNA Accumulation, and Host Range” (Frontiers in Plant Science, 2020).
Entries after “also recorded” stand apart in the source; their conditions may differ.

Columns and labels:
[1] = target: AbMV movement protein (MP; BC1) (UniProt P21946); test: acceptor photobleaching FRET, tag layout NC; details: sites T221,S223,S250
[2] = target: the molecule itself; test: FRET or BRET; acceptor photobleaching FRET in living N. benthamiana leaf epidermal cells, 3 dpai; acceptor mVenus, donor mTurquoise2; four layouts (NN, NC, CN, CC); without and with local AbMV (DNA-A + DNA-BΔMP) infection; ROIs along the plasma membrane; p19 co-infiltrated

Molecule	other: mean FRET efficiency ([1]; reference: MPWT with MPWT)	other: mean FRET efficiency ([1]; reference: MPAAA with MPAAA)	mean FRET efficiency (layout NC, with AbMV) [2]	mean FRET efficiency (layout NC, without AbMV) [2]
AbMV movement protein (MP; BC1) (from UniProt P21946) MPAAA with MPAAA	stronger; reference 36; also recorded: stronger; reference 28			
AbMV movement protein (MP; BC1) (from UniProt P21946) MPDDD with MPDDD	same; reference 28	weaker; reference 50; also recorded: weaker; reference 42		
AbMV movement protein, full-length, T221A/S223A/S250A (MP^AAA), fused to mVenus or mTurquoise2 (natural protein, Abutilon mosaic virus, UniProt P21946 1-293, looked up, Movement protein (MP; BC1) of Abutilon mosaic virus, full-length; Two copies expressed from one T-DNA (pFRETtv-2-in-1), one with mVenus and one with mTurquoise2, in four layouts (NN, NC, CN, CC); each copy carries one fluorescent protein at one end; also called mVenus::MP^AAA; MP^AAA::mVenus; source: N. benthamiana leaf epidermis, transiently expressed after agro-infiltration, in living cells; …) MDSQLVNPPNAFNYIESHRDEYQLSHDLTEIILQFPSTAAQLTARLSRSCMKIDHCVIEYRQQVPINATGSVIVEIHDKRMTDNESLQASWTFPIRCNIDLHYFSASFFSLKDPIPWKLYYKVCDTNVHQRTHFAKFKGKLKLSTAKHSVDIPFRAPTVRILSKQFSEKDVDFSHVDYGKWERKPIRCASMSRIGLRGPIEIRPGESWASRSTIGTAQPDADAEMENELHPYRHLNRLGTSLLDPGESAAIVGDQRAEPNITMSMGQLNELVRTAVQECVNSNCQASQAKSLK			42%	50%
AbMV movement protein, full-length, wild type (MP^WT), fused to mVenus or mTurquoise2 (natural protein, Movement protein (MP; BC1) of Abutilon mosaic virus, full-length; Two copies expressed from one T-DNA (pFRETtv-2-in-1), one with mVenus and one with mTurquoise2, in four layouts (NN, NC, CN, CC); each copy carries one fluorescent protein at one end; also called BC1; mVenus::MP^WT; source: N. benthamiana leaf epidermis, transiently expressed after agro-infiltration, in living cells; not shown: …) MDSQLVNPPNAFNYIESHRDEYQLSHDLTEIILQFPSTAAQLTARLSRSCMKIDHCVIEYRQQVPINATGSVIVEIHDKRMTDNESLQASWTFPIRCNIDLHYFSASFFSLKDPIPWKLYYKVCDTNVHQRTHFAKFKGKLKLSTAKHSVDIPFRAPTVRILSKQFSEKDVDFSHVDYGKWERKPIRCASMSRIGLRGPIEIRPGESWASRSTIGTAQPDTDSEMENELHPYRHLNRLGTSLLDPGESASIVGDQRAEPNITMSMGQLNELVRTAVQECVNSNCQASQAKSLK			28%	36%
AbMV movement protein, full-length, T221D/S223D/S250D (MP^DDD), fused to mVenus or mTurquoise2 (natural protein, Abutilon mosaic virus, UniProt P21946 1-293, looked up, Movement protein (MP; BC1) of Abutilon mosaic virus, full-length; Two copies expressed from one T-DNA (pFRETtv-2-in-1), one with mVenus and one with mTurquoise2, in four layouts (NN, NC, CN, CC); each copy carries one fluorescent protein at one end; also called mVenus::MP^DDD; MP^DDD::mVenus; source: N. benthamiana leaf epidermis, transiently expressed after agro-infiltration, in living cells; …) MDSQLVNPPNAFNYIESHRDEYQLSHDLTEIILQFPSTAAQLTARLSRSCMKIDHCVIEYRQQVPINATGSVIVEIHDKRMTDNESLQASWTFPIRCNIDLHYFSASFFSLKDPIPWKLYYKVCDTNVHQRTHFAKFKGKLKLSTAKHSVDIPFRAPTVRILSKQFSEKDVDFSHVDYGKWERKPIRCASMSRIGLRGPIEIRPGESWASRSTIGTAQPDDDDEMENELHPYRHLNRLGTSLLDPGESADIVGDQRAEPNITMSMGQLNELVRTAVQECVNSNCQASQAKSLK			30%	14%
